Assay results published in patent publication US20220119522A1 (DENALI THERAPEUTICS, published 2022).
Where a chain is given by its changes, count along the chain named. Each block holds one binder with its values, some of them ahead of it. No end group written: not given here.

Assays:
[1] = target: T1, human TREM2 on the cell surface (human, UniProt Q9NZC2 19-230); test: flow cytometry, dose-titrated binding to HEK293-H6 cells
T1 construct: also called surface TREM2; TREM2 expressed in HEK293-H6 cells
T1 sequence: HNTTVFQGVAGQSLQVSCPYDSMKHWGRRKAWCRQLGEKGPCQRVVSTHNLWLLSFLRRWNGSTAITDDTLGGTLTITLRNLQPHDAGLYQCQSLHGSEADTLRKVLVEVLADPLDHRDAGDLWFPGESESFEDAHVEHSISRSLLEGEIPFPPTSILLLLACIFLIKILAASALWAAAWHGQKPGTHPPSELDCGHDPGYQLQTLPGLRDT
Method: After incubation, the cells were centrifuged and washed in FACS buffer (PBS+0.5% BSA) twice. Mixed cells were resuspended in FACS buffer with human Trustain FcX solution (Biolegend, Catalog No. 422302) at a density of 10⁶/mL per cell line. The mixed cell lines were seeded at 200,000 cells per well in a 96-well round-bottom plate and incubated for 20 minutes at room temperature. After incubation, the cells were centrifuged and incubated with anti-TREM2 antibodies of about 0-200 nM dose titration for 45 minutes on ice. After incubation, the cells were centrifuged and washed with FACS buffer three times. […] After incubation, the cells were washed with FACS buffer three times, resuspended in 100 μL of FACS buffer, and analyzed by flow cytometry (BD FACSCanto II, San Jose, Calif.), for which 30,000 events were obtained for each sample. Mean fluorescence intensity per cells were calculated by FlowJo software and used for generating dose response binding curve.
(§1) Sequence optimization was conducted by searching within CDR sequences for residues that are susceptible to chemical modification (e.g., asparagine deamidation motifs (NG), aspartic acid isomerization motifs (DS), and potential oxidation residues (tryptophan (W) and methionine (M)) and making amino acid substitutions with conservative and germline residues to remove such sequence liabilities. Humanized and sequence-optimized variants of anti-TREM2 antibodies were then analyzed for binding kinetics using Biacore and dose-titrated cell binding to HEK293-H6 cells (see, Example 1 for representative protocols).

[2] = target: T2, His-tagged human TREM2 ECD (human, UniProt Q9NZC2 19-172); test: SPR (Biacore)
T2 construct: Biacore and HDX say only recombinant human TREM2 (ECD); also called recombinant human TREM2; hTREM2
T2 sequence: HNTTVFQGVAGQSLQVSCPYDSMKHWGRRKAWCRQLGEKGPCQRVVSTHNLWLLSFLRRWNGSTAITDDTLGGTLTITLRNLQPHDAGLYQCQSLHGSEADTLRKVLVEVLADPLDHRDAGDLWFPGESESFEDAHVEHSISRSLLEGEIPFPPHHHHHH
Method: (§2) Surface plasmon resonance (Biacore™ 8K instrument) was used to measure anti-TREM2 antibody affinities for human and cynomolgus TREM2 ECD. Anti-TREM2 antibodies were captured using Human Fab Capture Kit (GE Healthcare Life Sciences, Catalog No. 28958325) on a Biacore Series S CM5 sensor chip (GE Healthcare Life Sciences, Catalog No. 29149604). Serial 3-fold dilutions of recombinant human or cynomolgus TREM2 were injected at a flow rate of 30 μL/min. Antibody binding was monitored for 300 seconds, followed by monitoring of antibody dissociation for 600+seconds in HBS-EP+ running buffer (GE Healthcare Life Sciences, Catalog No. BR100669). The binding response was corrected by subtracting the RU value from a blank flow cell. A 1:1 Languir model of simultaneous fitting of kₒₙ and koff was used for kinetics analysis.
as §1

[3] = target: T3, cynomolgus soluble TREM2 (sTREM2) (cynomolgus); test: MSD assay: sTREM2 captured from healthy cynomolgus CSF, sulfo-tagged antibody titrated
T3 construct: also called sTREM2 in Cyno CSF
Method: (§3) The affinity of anti-TREM2 antibodies to human TREM2 and cynomolgus TREM2 were measured by Biacore (described in Example 1). The potency of anti-TREM2 antibodies were measured in healthy human volunteer CSF samples (Innovative Research) and healthy cynomolgus monkey CSF samples (Worldwide Primates), by MSD assay. The potency of each antibody was determined by its EC50. Briefly, MSD GOLD 96-well small spot streptavidin plates (MSD, Cat. No. L45SA) coated with capture antibody (biotinylated goat anti-human TREM2, R&D Systems, Cat. No. BAF1828) was incubated with biofluid samples diluted 1:3 in Assay Buffer (25% (v/v) MSD Blocker A (MSD, Cat. No. R93BA-A), 75% (v/v) TBST) for one hour at room temperature. After rinsing the wells with TBST, sulfo-tagged anti-TREM2 antibody was added in a serial dilution (4×dilution over 11 points) to the wells of the plate and incubated for one hour at room temperature. The wells were washed with TBST, and MSD Read Buffer (MSD, Cat. No. R92TC-3) was added to the wells. Signal from the samples were measured using an MSD Meso Sector 5600 device. EC50 values for each antibody was determined by four-parameter variable slope non-linear regression. The variable regions of reference antibody #1 are represented by SEQ ID NOS:344 and 345. The variable regions of reference antibody #2 are represented by SEQ ID NOS:346 and 347. The variable regions of reference antibody #3 are represented by SEQ ID NOS:348 and 349.

[4] = target: T4, human soluble TREM2 (sTREM2) (human, UniProt Q9NZC2 19-157, limits assumed); test: MSD assay: sTREM2 captured from healthy human CSF, sulfo-tagged antibody titrated
T4 construct: Native shed sTREM2; also called sTREM2 in Human CSF; sTREM2 in huTrem2 KI mouse plasma
T4 sequence: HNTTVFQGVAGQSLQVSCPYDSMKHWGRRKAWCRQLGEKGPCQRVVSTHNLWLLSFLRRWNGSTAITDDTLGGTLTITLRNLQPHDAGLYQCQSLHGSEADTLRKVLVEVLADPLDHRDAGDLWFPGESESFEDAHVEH
Method: as §3

[5] = target: T5, recombinant cynomolgus TREM2 ECD (cynomolgus); test: SPR (Biacore)
T5 construct: extracellular domain; also called cyno TREM2
Method: as §2, with “analysis. […]” for “analysis.”

[6] = target: T2, His-tagged human TREM2 ECD; test: SPR (Biacore); remark: listed apart in the source
Method: as §2, with “analysis. […]” for “analysis.”

[7] = target: T6, mouse TREM2 full length stalk region peptide (aa 131-169) (mouse, UniProt Q99NH8 131-169, biotinylated (site not stated)); test: ELISA on biotinylated peptide captured by streptavidin; A450 normalised to isotype control
T6 peptide (looked up): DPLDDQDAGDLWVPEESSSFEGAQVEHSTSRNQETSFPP
Procedure, shortened: (§4)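 Sandwich ELISA: biotinylated TREM2 stalk peptides captured on streptavidin-coated plates, antibodies added for 1 h in 1% BSA/PBS, binding detected with anti-human kappa-HRP and TMB at A450. Values expressed as fold over isotype-control background.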

[8] = target: T7, human TREM2 full length stalk region peptide (aa 129-172) (human, biotinylated (site not stated)); test: as above
T7 construct: also called Human TREM2 peptide (aa 129-172); full-length TREM2 stalk peptide
T7 peptide: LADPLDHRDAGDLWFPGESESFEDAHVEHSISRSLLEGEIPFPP
Procedure, shortened: as §4

[9] = target: T8, human TREM2 truncated stalk peptide (aa 149-163) (human, also: biotinylated (site not given here)); test: as above
T8 construct: also called Human TREM2 peptide (aa 149-163); truncated stalk peptide containing the ADAM10/17 cleavage site
T8 peptide: SFEDAHVEHSISRSL
Procedure, shortened: as §4

[10] = target: T5, recombinant cynomolgus TREM2 ECD; test: SPR (Biacore), antibody captured via anti-human Fab, recombinant TREM2 ECD injected, 1:1 fit
Procedure, shortened: (§5)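 Antibodies captured on a CM5 chip via anti-human Fab, then 3-fold serial dilutions of recombinant human or cynomolgus TREM2 ECD injected at 30 μL/min in HBS-EP+. Association 300 s, dissociation 600+ s, blank-cell subtracted; kon and koff from simultaneous 1:1 Langmuir fit.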

[11] = target: T2, His-tagged human TREM2 ECD; test: as above
Procedure, shortened: as §5

[12] = target: T1, human TREM2 on the cell surface; test: cell binding, human macrophages, dose titration
[13] = target: T1, human TREM2 on the cell surface; test: cell-based or functional assay

EC50 [1]: 0.44 nM
Kd [2]: 4.8 nM
EC50 [3]: 0.28 nM
EC50 [4]: 0.29 nM
Kd [5]: 1.5 nM
Kd [6]: 1.4 nM
B1: CL0020188-4 (antibody, V domains shown)
VH: EVQLVESGGGLVQPGGSLRLSCAGSGFTFTDFYMSWVRQAPGKGPEWLSVIRNKANGYTAGYNPSVKGRFTISRDNSKNTLYLQMNSLRAEDTAVYYCARLTYGFDYWGQGTLVTVSS
VL: DIVMTQTPLSLPVTPGEPASISCQSSKSLLHSTGKTYLNWYLQKPGQSPQLLIYWMSTRASGVPDRFSGSGSGTDFTLKISRVEAEDVGVYYCQQFLEYPFTFGQGTKVEIK
notes: Humanized variant of CL0020188 (hVH NG/3 m, hVL TG/graft); also called Clone CL0020188-4

EC50 [1]: 0.68 nM
Kd [2]: 10 nM
EC50 [3]: 0.72 nM
EC50 [4]: 0.75 nM
Kd [5]: 2.8 nM
Kd [6]: 3.3 nM
B2: CL0020188-7 (antibody, V domains shown)
VH: B1 VH with G24A, P45L, L48V, G57A
VL: B1 VL
notes: Humanized variant of CL0020188 (hVH NA/graft, hVL TG/graft); also called Clone CL0020188-7

EC50 [3]: 6.5 nM
EC50 [4]: 7.4 nM
Kd [5]: 9.2 nM
Kd [6]: 4.3 nM
B7: Reference antibody #2 (antibody, V domains shown)
VH: EVQLVQSGAEVKKPGESLKISCKGSGYSFTSYWIAWVRQMPGKGLEWMGIIYPGDSDTRYSPSFQGQVTISADKSISTAYLQWSSLKASDTAMYFCARQRTFYYDSSDYFDYWGQGTLVTVSS
VL: DIQMTQSPSSVSASVGDRVTITCRASQGISSWLAWYQQKPGKAPKLLIYAASSLQNGVPSRFSGSGSGTDFTLTISSLQPEDFATYFCQQADSFPRTFGQGTKLEIK

EC50 [3]: 33.7 nM
EC50 [4]: 7.25 nM
Kd [5]: 9.2 nM
Kd [6]: 8.7 nM
B8: Reference antibody #3 (antibody, V domains shown)
VH: QVQLVQSGAEVKKPGASVKVSCKASGYAFSSQWMNWVRQAPGQRLEWIGRIYPGGGDTNYAGKFQGRVTITADTSASTAYMELSSLRSEDTAVYYCARLLRNQPGESYAMDYWGQGTLVTVSS
VL: DVVMTQSPDSLAVSLGERATINCRSSQSLVHSNRYTYLHWYQQKPGQSPKLLIYKVSNRFSGVPDRFSGSGSGTDFTLKISRVEAEDVGVYYCSQSTRVPYTFGQGTKLEIK

Second part, the binder before the results:

B3: CL0020123 (antibody, V domains shown)
VH: EVQLQQSGAELVRSGASVKLSCTASGFSIEDFYIHWVKQRPEQGLEWIGWIDPENGDSKYAPKFQGKATMTADTSSNTAYLHLSSLTSEDTAVYYCHADHGNYGSTMDYWGQGTSVTVSS
VL: DIQMNQSPSSLSASLGDTVTITCHASQHINVWLSWYQQKPGDHPKLLIYKASNLHTGVPSRFSGSGSGTGFTLTISSLQPEDIATYYCQQGQTYPRTFGGGTKLEIK
notes: also called Clone CL0020123
EC50 [1]: 0.26 nM
Kd [2]: 0.1 nM
fold over background (A450) [7]: 1 fold
fold over background (A450) [8]: 1.2 fold
fold over background (A450) [9]: 1.2 fold
Kd [10]: 5.7 nM
Kd [11]: 0.068 nM
EC50 [12]: 0.3 nM
Survival EC50 (nM), plate coated mAb, human macrophages [13]: 44.7 nM
pSyk activation (human macrophages) EC50 (nM) [13]: 7 nM

B4: CL0020123-7 (antibody, V domains shown)
VH: QVQLVQSGAEVKKPGASVKVSCKASGFSIEDFYIHWVRQAPGQGLEWMGWIDPENGESKYAPKFQGRVTITADTSTSTAYMELSSLRSEDTAVYYCHADHGNYGSTMDYWGQGTLVTVSS
VL: B3 VL with N5T, L15V, T18R, D42K, H43A, G70D, I83F, G100Q, L104V
notes: Humanized variant of CL0020123 (hVH NGES/1 m, Vk graft); also called Clone CL0020123-7
EC50 [1]: 0.19 nM
Kd [2]: 0.15 nM
EC50 [3]: 16.9 nM
EC50 [4]: 0.54 nM
Kd [5]: 9.4 nM
Kd [6]: 0.08 nM

B5: CL0020123-5 (antibody, V domains shown)
VH: B4 VH with N55Q, V68A
VL: B3 VL with N5T, L15V, T18R, D42K, H43A, G70D, I83F, G100Q, L104V
notes: Humanized variant of CL0020123 (hVH QGES/2 m, Vk graft); also called Clone CL0020123-5
EC50 [1]: 0.37 nM
Kd [2]: 0.44 nM
EC50 [3]: 49.4 nM
EC50 [4]: 1 nM
Kd [5]: 9.3 nM
Kd [6]: 0.63 nM

B6: Reference antibody #1 (antibody, V domains shown)
VH: B7 VH with Y27H, S31N, M93V, D108G
VL: B7 VL with S31N, N56V, S60L, F87Y, T97N
EC50 [3]: 81.6 nM
EC50 [4]: 32.6 nM
Kd [5]: 14 nM
Kd [6]: 5.9 nM
